These results are taken from article PMC11272584 (Nature Metabolism, 2024).

Residue numbers refer to the chain shown, from its start.

Assay [1] has as its target T1, GIPR I299V (human) (UniProt P48546).
T1 sequence: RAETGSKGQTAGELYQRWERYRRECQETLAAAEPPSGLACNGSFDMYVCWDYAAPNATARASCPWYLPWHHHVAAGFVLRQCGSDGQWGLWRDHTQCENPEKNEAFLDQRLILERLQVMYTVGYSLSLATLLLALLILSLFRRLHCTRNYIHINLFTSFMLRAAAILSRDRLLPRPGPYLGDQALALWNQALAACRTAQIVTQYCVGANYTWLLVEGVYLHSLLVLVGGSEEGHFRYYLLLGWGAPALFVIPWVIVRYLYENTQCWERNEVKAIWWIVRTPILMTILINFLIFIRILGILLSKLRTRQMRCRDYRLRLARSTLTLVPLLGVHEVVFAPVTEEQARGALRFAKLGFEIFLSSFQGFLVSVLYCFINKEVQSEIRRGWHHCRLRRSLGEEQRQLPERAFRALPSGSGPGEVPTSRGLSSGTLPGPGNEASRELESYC

The target in assay [2] is T2, GIPR V99I (human) (UniProt P48546).
T2 sequence: T1 sequence with V78I, V278I

In assay [3] the target is T3, GIPR T25R (human) (UniProt P48546).
T3 sequence: T1 sequence with T4R, V278I

Assay [4] has as its target T4, GIPR R336P (human) (UniProt P48546).
T4 sequence: T1 sequence with V278I, R315P

The target of assay [5] is T5, GIPR R164Q (human) (UniProt P48546).
T5 sequence: T1 sequence with R143Q, V278I

Assay [6] addresses T6, GIPR R38L (human) (UniProt P48546).
T6 sequence: T1 sequence with R17L, V278I

Assay [7] concerns the target GIPR R12Q (human) (UniProt P48546).

For “β-arrestin 2 (Rluc8-Arrestin-3-Sp1) (from UniProt P32121 1-409) (natural protein)”, the β-arrestin 2 recruitment (BRET) on stimulation with GIP(1-42): logEC50 (Arrestin) (log M (inferred)) was -9.01 in assay [1]; -8.93 in assay [2]; -9.3 in assay [3]; -8.82 in assay [4]; -8.92 in assay [5]; -9 in assay [6]. The substance further displayed a β-arrestin 2 recruitment (BRET) on stimulation with GIP(1-42): logEC50 (Arrestin) (log M (inferred)) in assay [7] of -8.72.
